Substrate in the data set: N=C(N)N
Briefly: HPLC guanidine / GC-MS urea quantification, velocity versus guanidine concentration. In kind it is biochemical, Synechocystis sp. PCC 6803. The following applies: 20 mM Tris-HCl pH 7.5, 50 mM NaCl, 1 mM MnCl2, 30 °C, His-tagged enzyme, no ATP.

These results are taken from article PMC8390497, “A guanidine-degrading enzyme controls genomic stability of ethylene-producing cyanobacteria” (Nature Communications, 2021).

B1: Sll1077-His (Synechocystis sp. PCC 6803 substr. Kazusa) (protein)
chain: MSDATPFRPPSEAEEALIKETRLPLTGWQQEVDQGLTYGLEAAASIKDRSIPTFSRGELPHYAGINTFMKAPYLEDVREVGKYDVAIVGVPHDSGTTYRPGTRFGPQGIRRISALYTPYNFEMGVDLREQISLCDVGDIFTIPANNEKSFDQISKGIAHIFSSGAFPIILGGDHSIGFPTVRGICRHLGDKKVGIIHFDRHVDTQETDLDERMHTCPWFHATNMANAPAKNLVQLGIGGWQVPRQGVKVCRERATNILTVTDITEMSLDAAADFAIARATDGTDCVWISFDIDCIDAGFVPGTGWPEPGGLLPREALYLLKRIIRETNVCGMEVVEVSPPYDISDMTSLMATRVICDTMAHLVVSGQLPRTEKPAYIHAEANMAVDEPWQ
notes: full-length with C-terminal 6xHis tag kept (no XhoI linker, pPB316), overexpressed in and purified from Synechocystis 6803 strain PB816W
Regarding B1, the Km turned out to be 5.3 ± 1.2 mM and the kcat was found to be 0.040 ± 0.010 s⁻¹.
